Experimental data: the supplement of paper PMC11780869

Test system: Bacillus subtilis
Test: cleaved RNA product abundance (RNA/gDNA barcode ratio) relative to median wild-type variant (ratio to wild type); higher = more accumulation of the downstream cleavage product
Conditions: cleavage site: cggR-gapA (positions -7 to +36 mutated)
Procedure: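 MPRA in B. subtilis. Mutagenized RNase Y cleavage-site regions (9% mutation rate) were inserted into a barcoded reporter mRNA (truncated aprE or tetM). Cells were grown in LB at 37°C to OD600 0.3. The cleaved RNA isoform was gel-purified and its barcodes counted; the RNA:gDNA barcode ratio was normalised to the median wild-type variant, and the median over barcodes is reported per variant. The printed sequence is the variable window only; the reporter flanks are not printed.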

[1] = experiment (reporter, strain, medium): exp 4a: truncated aprE reporter, strain BJT201 with 2% xylose (RNase J1 expressed)
[2] = experiment (reporter, strain, medium): exp 2b: truncated aprE reporter, strain BJT200
[3] = experiment (reporter, strain, medium): exp 6: tetM reporter, strain 168

Row | Sequence | cleaved RNA product abundance [1] | cleaved RNA product abundance [2] | cleaved RNA product abundance [3]
1 | ACAGACGAAGGAGCCGCAAAGAACTTATTAAGGGATGAATCATCCCTCAATATAAATATCTCTCACTTATTTAAA | 0.36 | – | –
2 | ACAGACGAAGGAGCCGCAAAGAACTTATTAAGGGATGAATGATCCCTCAATATAAATATCTCTCACTTATTTAAA | 0.282 | – | –
3 | ACAGACGAAGGAGCCGCAAAGAACTTATTAAGGGATGAATTATCCCACAATATAAATATCTCTCACTTATTTAAA | 0.17 | – | –
4 | ACAGACGAAGGAGCCGCAAAGAACTTATTAAGGGATGAATTATCCCTCAATATAAATATCTCTCACTTATTTAAA | 0.31 | 0.284 | –
5 | ACAGACGAAGGAGCCGCAAAGAACTTATTAAGGGATGACTAATCCCTCAATATAAATATCTCTCACTTATTTAAA | 0.382 | – | –
6 | ACAGACGAAGGAGCCGCAAAGAACTTATTAAGGGATGAGTAATCCCTCAATATAAATATCTCTCACTTATTTAAA | 0.421 | – | –
7 | ACAGACGAAGGAGCCGCAAAGAACTTATTAAGGGATGTATAATCCCTCAATATAAATATCTCTCACTTATTTAAA | 0.637 | – | –
8 | ACAGACGAAGGAGCCGCAAAGAACTTATTAAGGGATTAATAATCCCTCAATATAAATATCTCTCACTTATTTAAA | 0.621 | – | –
9 | ACAGACGAAGGAGCCGCAAAGAACTTATTAAGGGGTGAATAATCCCTCAATATAAATATCTCTCACTTATTTAAA | 0.411 | – | –
10 | ACAGACGAAGGAGCCGCAAAGAACTTATTAAGGGTTGAATAATCCCTCAATATAAATATCTCTCACTTATTTAAA | 0.232 | 0.218 | –
11 | ACAGACGAAGGAGCCGCAAAGAACTTATTAAGGTATGAATAATCCCTCAATATAAATATCTCTCACTTATTTAAA | 0.108 | 0.0959 | –
12 | ACAGACGAAGGAGCCGCAAAGAACTTATTAAGTGATGAATAATCCCTCAATATAAATATCTCTCACTTATTTAAA | 0.0735 | – | –
13 | ACAGACGAAGGAGCCGCAAAGAACTTATTAATGGATGAATAATCCCTCAATATAAATATCTCTCACTTATTTAAA | 0.142 | 0.102 | –
14 | ACAGACGAAGGAGCCGCAAAGAACTTATTACGGGATGAATAATCCCTCAATATAAATATCTCTCACTTATTTAAA | 0.248 | – | –
15 | ACAGACGAAGGAGCCGCAAAGAACTTATTATGGGATGAATAATCCCTCAATATAAATATCTCTCACTTATTTAAA | 0.233 | – | –
16 | ACAGACGAAGGAGCCGCAAAGAACTTATTCAGGGATGAATAATCCCTCAATATAAATATCTCTCACTTATTTAAA | 0.525 | – | –
17 | ACAGACGAAGGAGCCGCAAAGAACTTATTTAGGGATGAATAATCCCTCAATATAAATATCTCTCACTTATTTAAA | 0.321 | 0.442 | –
18 | ACAGACGAAGGAGCCGCAAAGAACTTTTTAAGGGATGAATAATCCCTCAATATAAATATCTCTCACTTATTTAAA | – | 0.204 | –
19 | ACAGACGAAGGAGCCGCAAAGAAGAAATTAAGGGATGAATAATCCCTCAATATAAATATCTCTCACTTATTTAAA | 0.185 | 0.171 | –
20 | ACAGACGAAGGAGCCGCAAAGAAGAAATTAAGGGATGAATAATTCCTCAATATAAATATCTCTCACTTATTTAAA | 0.129 | – | –
21 | ACAGACGAAGGAGCCGCAAAGAAGATAATAAGGGATGAATAATCCCTCAATATAAATATCTCTCACTTATTTAAA | 0.227 | – | –
22 | ACAGACGAAGGAGCCGCAAAGAAGATACTAAGGGATGAATAATCCCTCAATATAAATATCTCTCACTTATTTAAA | – | 0.0772 | –
23 | ACAGACGAAGGAGCCGCAAAGAAGATAGTAAGGGATGAATAATCCCTCAATATAAATATCTCTCACTTATTTAAA | 0.265 | – | –
24 | ACAGACGAAGGAGCCGCAAAGAAGATATAAAGGGATGAATAATCCCTCAATATAAATATCTCTCACTTATTTAAA | 0.514 | 0.272 | –
25 | ACAGACGAAGGAGCCGCAAAGAAGATATCAAGGGATGAATAATCCCTCAATATAAATATCTCTCACTTATTTAAA | 0.522 | – | –
26 | ACAGACGAAGGAGCCGCAAAGAAGATATTAAAGGATGAATAATCCCTCAATATAAATATCTCTCACTTATTTAAA | 0.264 | 0.199 | –

Row | Sequence | cleaved RNA product abundance [1] | cleaved RNA product abundance [2] | cleaved RNA product abundance [3]
27 | ACAGACGAAGGAGCCGCAAAGAAGATATTAACGGATGAATAATCCCTCAATATAAATATCTCTCACTTATTTAAA | 0.207 | – | –
28 | ACAGACGAAGGAGCCGCAAAGAAGATATTAAGAGATGAATAATCCCTCAATATAAATATCTCTCACTTATTTAAA | 0.221 | 0.128 | –
29 | ACAGACGAAGGAGCCGCAAAGAAGATATTAAGGAATGAATAATCCCTCAATATAAATATCTCTCACTTATTTAAA | 0.175 | 0.12 | –
30 | ACAGACGAAGGAGCCGCAAAGAAGATATTAAGGCATGAATAATCCCTCAATATAAATATCTCTCACTTATTTAAA | 0.17 | 0.088 | –
31 | ACAGACGAAGGAGCCGCAAAGAAGATATTAAGGGAAGAATAATCCCTCAATATAAATATCTCTCACTTATTTAAA | 1 | – | –
32 | ACAGACGAAGGAGCCGCAAAGAAGATATTAAGGGAGGAATAATCCCTCAATATAAATATCTCTCACTTATTTAAA | 0.643 | – | –
33 | ACAGACGAAGGAGCCGCAAAGAAGATATTAAGGGATAAATAATCCCTCAATATAAATATCTCTCACTTATTTAAA | 0.78 | – | 0.468
34 | ACAGACGAAGGAGCCGCAAAGAAGATATTAAGGGATCAATAATCCCTCAATATAAATATCTCTCACTTATTTAAA | 0.815 | 0.501 | –
35 | ACAGACGAAGGAGCCGCAAAGAAGATATTAAGGGATGAAAAATCCCTCAATATAAATATCTCTCACTTATTTAAA | 0.376 | – | –
36 | ACAGACGAAGGAGCCGCAAAGAAGATATTAAGGGATGAACAATCCCTCAATATAAATATCTCTCACTTATTTAAA | 0.647 | – | –
37 | ACAGACGAAGGAGCCGCAAAGAAGATATTAAGGGATGAATAAACCCTCAATATAAATATCTCTCACTTATTTAAA | 0.574 | – | –
38 | ACAGACGAAGGAGCCGCAAAGAAGATATTAAGGGATGAATAAGCCCTCAATATAAATATCTCTCACTTATTTAAA | 0.432 | – | –
39 | ACAGACGAAGGAGCCGCAAAGAAGATATTAAGGGATGAATAATACCTCAATATAAATATCTCTCACTTATTTAAA | 0.237 | 0.162 | –
40 | ACAGACGAAGGAGCCGCAAAGAAGATATTAAGGGATGAATAATCACTCAATATAAATATCTCTCACTTATTTAAA | 0.143 | 0.145 | –
41 | ACAGACGAAGGAGCCGCAAAGAAGATATTAAGGGATGAATAATCCATCAATATAAATATCTCTCACTTATTTAAA | 0.207 | – | –
42 | ACAGACGAAGGAGCCGCAAAGAAGATATTAAGGGATGAATAATCCCACAATATAAATATCTCTCACTTATTTAAA | 0.311 | – | –
43 | ACAGACGAAGGAGCCGCAAAGAAGATATTAAGGGATGAATAATCCCCCAATATAAATATCTCTCACTTATTTAAA | 0.32 | – | –
44 | ACAGACGAAGGAGCCGCAAAGAAGATATTAAGGGATGAATAATCCCTAAATATAAATATCTCTCACTTATTTAAA | 0.665 | 0.702 | 0.475
45 | ACAGACGAAGGAGCCGCAAAGAAGATATTAAGGGATGAATAATCCCTCAAAATAAATATCTCTCACTTATTTAAA | 0.205 | 0.15 | –
46 | ACAGACGAAGGAGCCGCAAAGAAGATATTAAGGGATGAATAATCCCTCAACATAAATATCTCTCACTTATTTAAA | 0.157 | 0.131 | –
47 | ACAGACGAAGGAGCCGCAAAGAAGATATTAAGGGATGAATAATCCCTCAATAAAAATATCTCTCACTTATTTAAA | – | 0.142 | –
48 | ACAGACGAAGGAGCCGCAAAGAAGATATTAAGGGATGAATAATCCCTCAATATAAAAATCTCTCACTTATTTAAA | 0.576 | – | –
49 | ACAGACGAAGGAGCCGCAAAGAAGATATTAAGGGATGAATAATCCCTCAATATAAAGATCTCTCACTTATTTAAA | 0.559 | – | –
50 | ACAGACGAAGGAGCCGCAAAGAAGATATTAAGGGATGAATAATCCCTCAATATAAATAACTCTCACTTATTTAAA | 1.07 | – | –
51 | ACAGACGAAGGAGCCGCAAAGAAGATATTAAGGGATGAATAATCCCTCAATATAAATATCTCTCACTTATTTAAA | 0.751 | 0.68 | 0.612
